# Laboratory results as given in the nanobody polyreactivity screen of Harvey et al. (2022).
# Assay: yeast display, Sf9 membrane polyspecificity reagent, FACS + sequencing; frameworks hold sequencing errors
# How it was run: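 Galactose-induced (36–48 hours) yeast carrying a synthetic nanobody display library were exposed to 10% biotinylated, detergent-solubilized Sf9 membrane reagent at 4 °C for 1 hour. FACS followed streptavidin microbead enrichment, using low and high (top ~1%) gates for expression (anti-HA) and reagent binding (streptavidin). Colony PCR, MiSeq 2 × 250 sequencing and CDR-length filtering followed. Labels for polyreactivity reflect the gate of origin.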
row,Sequence,polyreactivity (PSR sort gate)
1,QVQLVESGGGLVQAGGSLRLSGAASGRIFQRYVMGWYRQAPGKERELVAAISYSGARTYYADSVKGRFTISRDNAKNTVYLQMNSLKPEDTAVYYCAARIRNWPAMDYWGQGTQETVSS,high polyreactivity
2,QVQLVESGGCLVQAGGSLRLSCAASGSTFLSYAMGWYRQAPGKERELVAAISYSAGSTYYADSVKGRFTISRDNAKNTVYLQMNSLKPEDTAVYYCAAYDYSERRYDYWGQGTQVTVSS,low polyreactivity
3,QVQLVESGGGLVQAGGSLRLSCAASGFIFQAYAMGWYRQAPGKERELVASISYSGSRTYYADSVKGRFTISRDNAKNTVYLQMNSLKPEDTAVYYCAAGPRYWAPWFGRDYEYWGQGTQVTVSS,high polyreactivity
4,QVQLVESGGGLVQAGGSLRLSCAASGSTIIYYAMGWYRQAPGKESELVATISTSGTSTYYADSVKGRFTISRDNAKNTVYLQMNSLKPEDTAVYYCNAVHRNWRQKFDYWGQGTQVTVSS,high polyreactivity
5,QVQLQVSGGGLVQAGGSLRLSCAACGSNFLTAEMGWYLQAPGKERELVAAIATGTSTNYADSVKGRFTISRDNAKNTVYLQMNSLKREDTALYYCATYHYWGQGTQVTVSS,low polyreactivity
6,QVQLVESGGGLVQAGGSLPLSCAASGSIFGGNDMGWYRQAPGKERELVAAITSSGGSTYYADSVKGRFTITRDNAKITVYCQMNRLKPEVTAVYYCNADYYGPYRDYGYWGQGTQVTVSS,low polyreactivity
7,QVQLVESGGGLVQAGGSLRLSCAASGSTLNDYAMGWYRQSPGKERELVAGINRGGSTNYADSVKGRFTISRDNAKNTVYLQMKSLKPVDTAVYYCAVRAYRWRSTLGLYYWGQGTQVTVSS,high polyreactivity
8,QFQLVESGGGLVQAGGSLRLSCAASGRILSGNAMGWYRQAPGKERELVAAITNAGITKYADSVKGRFTISRDNAKNTVYLQMNSLKPEDTAVYYCATDRYAYNLYDYWGQGTQVTVSS,low polyreactivity
9,QVQLVESGGGLVQAGGSLRLSCAASGSTFGRNAMGWYRQAPGKERELVAAITASGGTTYYADSVKGRFTISRDNAKNTVYLQMNSLKPEDTAVYYCARAGHFSFKDDYWGQGTQVTVSS,low polyreactivity
10,QVQLVESGGGLVQAGGSLRLSCAASGSIFGYNAMGWYRQAPGKERELVAAISYSGGRTYYADSVKGRFTISRDNAKHTVYFQKNRLKPEDTAVYYCAKYKVGYVPSGYRYDSWGQGTQVTVSS,high polyreactivity
11,QVQHVESGGGLVQAGGSLRLSCAASGRIFQRNTMGWYRQAPGKERELVARINYSGGSTYYADSVKGRFTISRDNAKTTVYLQLNSLKPEDTAVYYCAARVWTWSIYYPAGLSSYDYWGQGTQVTVSS,low polyreactivity
12,QVQLVESGGGLVQAGGSLRLSCAASGRTCWYKAMGWYRQAPGKERELVAPITSGGRTKYADSVKGRFTISRDNAKNTVYLQMNSLKPEDTAVYYCNTYNRRSGTLPKPYDYWGQGTQVTVSS,high polyreactivity
13,QVQLLESGGGLVQAGGSLRLSCAASGSTFDDYAMGWYRQAPGKEREFVAAIDWSGGSTYYADSVKGRFTISRDNAKNTVYLQMNSLKPEDTAVYYCNADPDGSFDYWGQGTQVTVSS,low polyreactivity
14,QVQLVESGGGLVQAGGSLRLSCAASGIIFKLNAMGWYRQAPGKEREFVAAITRRGGITFYADSVKGRFTISRDNAKNTVYLQMNSLKPEDTAVYYCAASPGRRRRPYASLIRYDYWGQGTQVTVSS,high polyreactivity
15,QVKLVESGGGLVQAGGSLRLSCAASGRTFAWYTMGRYRQAPGKERALVAAISGSGGSTYYADSVKGRFTISRDNAKNTVYLQLNSLKPEDTDVYYCARRVDSYYCHTRYYYWGQGTQVTVSS,high polyreactivity
16,QVQLVESGGGLVQAGGSLRLSCAASGSTFAKNAMGWYRQAPGKERELVAAITASGGSTYYADSVKGRFTISRDNAKNTVSLQMNSLKPEDTAVYYCAKSSYLTRGSRYDYWGQGTQVTVSS,low polyreactivity
17,QVQLVESGGGLVQAGGSLRLSCAASGRIFHRNAMGWYRQAPGKERELVARITRSGTSTYYADSVKGRFTISRDNAKNTVYLQMNSLKQEDTAVYYCAADNASPSLGEYNYWGQGTQVTVSS,low polyreactivity
